Source: paper PMC4239116, “Crystal Structure of Cytomegalovirus IE1 Protein Reveals Targeting of TRIM Family Member PML via Coiled-Coil Interactions” (PLoS Pathogens, 2014)

B1: hIE1_(CORE)(14-382), recombinant (domain or fragment)
chain: PDEGPSSKVPRPETPVTKATTFLQTMLRKEVNSQLSLGDPLFPELAEESLKTFEQVTEDCNENPEKDVLAELVKQIKVRVDMVRHRIKEHMLKKYTQTEEKFTGAFNMMGGCLQNALDILDKVHEPFEEMKCIGLTMQSMYENYIVPEDKREMWMACIKELHDVSKGAANKLGGALQAKARAKKDELRRKMMYMCYRNIEFFTKNSAFPKTTNGCSQAMAALQNLPQCSPDEIMAYAQKIFKILDEERDKVLTHIDHIFMDILTTCVETMCNEYKVTSDACMMTMYGGISLLSEFCRVLCCYVLEETSVMLAKRPLITKPEVISVMKRRIEEICMKVFAQYILGADPLRVCSPSVDDLRAIAEESDEEE
notes: also called hIE1(14-382); source: E. coli BL21(DE3), purified (glutathione sepharose, PreScission cleavage, SEC)

Key:
[1] = target: rhIE1(36-395), core domain of rhesus cytomegalovirus IE1, lysine-methylated (rhesus cytomegalovirus (rhesus macaque CMV)); assay: crystal structure; rhIE1(36-395), lysine-methylated; hanging drop, 0.4 M magnesium formate, 15% (w/v) PEG 3350; monoclinic P2_1 crystals and, after controlled dehydration, tetragonal P4_3 crystals (2.3 Å)
[2] = target: the molecule itself; assay: SEC; Superdex 200 prepgrade; 25 mM Tris, 150 mM NaCl, 10 mM DTT, pH 7.5; calibrated with the Bio-Rad gel filtration standard

Row | Molecule | stoichiometry N [1] | binding result [2]
1 | rhIE1(36-395), core domain of rhesus cytomegalovirus IE1, lysine-methylated (domain or fragment) | 2 | 
2 | B1 |  | binds
